Data published in patent US20220002395A1 (FAPON BIOTECH, published 2022).
Where a chain is given by its changes, count along the chain named. Read-outs that look alike come from different tables or passages of the source.

How the values were obtained:
[1] = target: T1, Plasmodium falciparum histidine-rich protein II (HRP-II) (Plasmodium falciparum, UniProt P05227 22-332); assay: indirect ELISA, four antigen coating concentrations
T1 construct: Coating antigen of all ELISAs; also called HRP-II protein; MA-HRPII Ag protein
T1 sequence (looked up): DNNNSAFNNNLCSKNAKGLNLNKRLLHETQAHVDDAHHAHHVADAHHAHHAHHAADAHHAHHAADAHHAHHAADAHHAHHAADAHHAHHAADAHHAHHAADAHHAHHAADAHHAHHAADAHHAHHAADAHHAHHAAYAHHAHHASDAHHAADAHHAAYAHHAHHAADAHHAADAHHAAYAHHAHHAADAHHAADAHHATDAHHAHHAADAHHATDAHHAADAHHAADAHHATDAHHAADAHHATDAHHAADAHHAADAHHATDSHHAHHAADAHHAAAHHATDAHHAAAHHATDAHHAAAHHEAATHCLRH

[2] = target: T1, Plasmodium falciparum histidine-rich …; assay: as above; remark: listed apart in the source
Experimental: The OD values corresponding to different antibody concentrations with different coating concentrations are obtained. Under the same coating concentration, the antibody concentrations are used as an abscissa, the 00 values are used as an ordinate, and a logarithmic plot is made. […] An average value thereof is taken and a reciprocal thereof is calculated to get the affinity constant KD.

B1: WT 1-1 (antibody, mouse IgG2b, kappa, V domains shown)
VH: EVQLQQSGPEVVKPGASVKISCKASGYTITEYYMNWVKQSHGKGLEWIGDVNPINGGTPYQQKFRDKATLTVDKSSNTAYMELRSLTSEDSALYYCTKGAEEYWGQGTTLTVSS
VL: DVVLTQTPLSLSVTIGQPASISCKSSQSLLYSNGKIYINWFQQRPGQSPKRLMYQISKIEPGIPDRFSGSGSETDFTLKISRVEAEDLGVYYCLQATYSPNTFGGGTKLEIKR
notes: WT as framework
[1]
  Kd: 0.521 nM

B2: WT 1-2 (antibody, mouse IgG2b, kappa, V domains shown)
VH: B1 VH with Y27T, I29L, V51I, N55Q, Q61N, K98R
VL: B1 VL with L29I, N33Q, I56L, E60D, S99T
notes: WT as framework
[1]
  Kd: 0.0856 nM

B3: WT 1-3 (antibody, mouse IgG2b, kappa, V domains shown)
VH: B1 VH with Y27S, V51L
VL: B1 VL with L29I, L30I, I56V, A96G, S99Y
notes: WT as framework
[1]
  Kd: 0.0923 nM

B4: WT 1-4 (antibody, mouse IgG2b, kappa, V domains shown)
VH: B1 VH with Y27T, I29L, Q61N
VL: B1 VL with L30I, N33Q, S99T
notes: WT as framework
[1]
  Kd: 0.582 nM

B5: Mutation 1-8 (antibody, mouse IgG2b, kappa, V domains shown)
VH: B1 VH with E31D, N55Q, P59A, Q61N, E102D
VL: B1 VL with N33Q, I38L, I56L, I59L, E60D, S99T, N101Q
notes: Mutation 1 as framework
[2]
  Kd: 0.198 nM

B6: Mutation 1-10 (antibody, mouse IgG2b, kappa, V domains shown)
VH: B1 VH with E31D, V51I, P59A, Q61N, K98R, E102D
VL: B1 VL with I38L, I56V, I59L, E60D, A96G, S99Y, N101Q
notes: Mutation 1 as framework
[2]
  Kd: 0.827 nM

B7: Mutation 1-11 (antibody, mouse IgG2b, kappa, V domains shown)
VH: B1 VH with E31D, P59A, Q61N, E102D
VL: B1 VL with L29I, L30I, I38L, I56V, I59L, S99T, N101Q
notes: Mutation 1 as framework
[2]
  Kd: 0.0213 nM

B8: Mutation 1-13 (antibody, mouse IgG2b, kappa, V domains shown)
VH: B1 VH with Y27S, I29L, E31D, V51I, N55Q, P59A, Q61N, E102D
VL: B1 VL with L29I, N33Q, I38L, I59L, A96G, S99Y, N101Q
notes: Mutation 1 as framework
[2]
  Kd: 0.0865 nM

B9: Mutation 1-14 (antibody, mouse IgG2b, kappa, V domains shown)
VH: B1 VH with I29L, E31D, P59A, Q61N, E102D
VL: B1 VL with L30I, I38L, I56L, I59L, E60D, S99T, N101Q
notes: Mutation 1 as framework
[2]
  Kd: 0.226 nM

B10: Mutation 1-15 (antibody, mouse IgG2b, kappa, V domains shown)
VH: B1 VH with E31D, V51L, N55Q, P59A, Q61N, K98R, E102D
VL: B1 VL with L30I, I38L, I56L, I59L, A96G, S99T, N101Q
notes: Mutation 1 as framework
[2]
  Kd: 0.245 nM

B11: Mutation 1-16 (antibody, mouse IgG2b, kappa, V domains shown)
VH: B1 VH with E31D, V51I, N55Q, P59A, Q61N, K98R, E102D
VL: B1 VL with N33Q, I38L, I56V, I59L, E60D, A96G, N101Q
notes: Mutation 1 as framework
[2]
  Kd: 0.502 nM

B12: Mutation 1-17 (antibody, mouse IgG2b, kappa, V domains shown)
VH: B1 VH with E31D, P59A, Q61N, E102D
VL: B1 VL with N33Q, I38L, I56V, I59L, A96G, S99Y, N101Q
notes: Mutation 1 as framework
[2]
  Kd: 0.0824 nM

B13: Mutation 1-18 (antibody, mouse IgG2b, kappa, V domains shown)
VH: B1 VH with I29L, E31D, V51L, N55Q, P59A, Q61N, E102D
VL: B1 VL with N33Q, I38L, I59L, E60D, A96G, S99T, N101Q
notes: Mutation 1 as framework
[2]
  Kd: 0.051 nM

B14: Mutation 1-19 (antibody, mouse IgG2b, kappa, V domains shown)
VH: B1 VH with Y27T, I29L, E31D, V51I, N55Q, P59A, Q61N, K98R, E102D
VL: B1 VL with L29I, L30I, N33Q, I38L, I59L, N101Q
notes: Mutation 1 as framework
[2]
  Kd: 0.0835 nM

B15: Mutation 1-20 (antibody, mouse IgG2b, kappa, V domains shown)
VH: B1 VH with Y27S, E31D, N55Q, P59A, Q61N, E102D
VL: B1 VL with L29I, L30I, N33Q, I38L, I56L, I59L, E60D, A96G, S99Y, N101Q
notes: Mutation 1 as framework
[2]
  Kd: 0.251 nM

B16: Mutation 1-21 (antibody, mouse IgG2b, kappa, V domains shown)
VH: B1 VH with Y27T, I29L, E31D, V51L, N55Q, P59A, Q61N, K98R, E102D
VL: B1 VL with N33Q, I38L, I56L, I59L, A96G, S99T, N101Q
notes: Mutation 1 as framework
[2]
  Kd: 0.0828 nM

B17: Mutation 1-22 (antibody, mouse IgG2b, kappa, V domains shown)
VH: B1 VH with E31D, V51I, N55Q, P59A, E102D
VL: B1 VL with L29I, L30I, I38L, I56V, I59L, E60D, N101Q
notes: Mutation 1 as framework
[2]
  Kd: 0.0814 nM

B18: Mutation 1-23 (antibody, mouse IgG2b, kappa, V domains shown)
VH: B1 VH with Y27T, I29L, E31D, N55Q, P59A, Q61N, K98R, E102D
VL: B1 VL with L29I, L30I, I38L, I56V, I59L, A96G, S99Y, N101Q
notes: Mutation 1 as framework
[2]
  Kd: 0.364 nM

B19: Mutation 1-25 (antibody, mouse IgG2b, kappa, V domains shown)
VH: B1 VH with E31D, V51I, N55Q, P59A, Q61N, K98R, E102D
VL: B1 VL with N33Q, I38L, I59L, A96G, S99T, N101Q
notes: Mutation 1 as framework
[2]
  Kd: 0.444 nM

B20: Mutation 1-26 (antibody, mouse IgG2b, kappa, V domains shown)
VH: B1 VH with Y27T, I29L, E31D, N55Q, P59A, Q61N, K98R, E102D
VL: B1 VL with N33Q, I38L, I56L, I59L, E60D, A96G, S99Y, N101Q
notes: Mutation 1 as framework
[2]
  Kd: 0.211 nM

B21: Mutation 1-28 (antibody, mouse IgG2b, kappa, V domains shown)
VH: B1 VH with E31D, V51I, N55Q, P59A, E102D
VL: B1 VL with L29I, L30I, I38L, I56V, I59L, E60D, S99T, N101Q
notes: Mutation 1 as framework
[2]
  Kd: 0.012 nM

B22: Mutation 1-29 (antibody, mouse IgG2b, kappa, V domains shown)
VH: B1 VH with E31D, N55Q, P59A, Q61N, K98R, E102D
VL: B1 VL with L29I, L30I, N33Q, I38L, I56V, I59L, A96G, S99Y, N101Q
notes: Mutation 1 as framework
[2]
  Kd: 0.0835 nM

B23: Mutation 1-31 (antibody, mouse IgG2b, kappa, V domains shown)
VH: B1 VH with Y27T, I29L, E31D, V51I, P59A, E102D
VL: B1 VL with I38L, I59L, A96G, S99T, N101Q
notes: Mutation 1 as framework
[2]
  Kd: 0.0946 nM

B24: Mutation 1-32 (antibody, mouse IgG2b, kappa, V domains shown)
VH: B1 VH with E31D, N55Q, P59A, K98R, E102D
VL: B1 VL with I38L, I56L, I59L, E60D, S99Y, N101Q
notes: Mutation 1 as framework
[2]
  Kd: 0.244 nM

B25: Mutation 1-33 (antibody, mouse IgG2b, kappa, V domains shown)
VH: B1 VH with Y27T, I29L, E31D, V51L, N55Q, P59A, Q61N, E102D
VL: B1 VL with I38L, I56L, I59L, A96G, N101Q
notes: Mutation 1 as framework
[2]
  Kd: 0.169 nM

B26: Mutation 1-35 (antibody, mouse IgG2b, kappa, V domains shown)
VH: B1 VH with E31D, N55Q, P59A, K98R, E102D
VL: B1 VL with I38L, I56V, I59L, S99Y, N101Q
notes: Mutation 1 as framework
[2]
  Kd: 0.521 nM

B27: Mutation 1-37 (antibody, mouse IgG2b, kappa, V domains shown)
VH: B1 VH with E31D, V51I, P59A, E102D
VL: B1 VL with I38L, I59L, S99Y, N101Q
notes: Mutation 1 as framework
[2]
  Kd: 0.365 nM

B28: Mutation 1-39 (antibody, mouse IgG2b, kappa, V domains shown)
VH: B1 VH with Y27T, I29L, E31D, V51L, P59A, E102D
VL: B1 VL with I38L, I56L, I59L, S99T, N101Q
notes: Mutation 1 as framework
[2]
  Kd: 0.233 nM

B29: Mutation 1-41 (antibody, mouse IgG2b, kappa, V domains shown)
VH: B1 VH with I29L, E31D, P59A, E102D
VL: B1 VL with L29I, I38L, I56V, I59L, S99Y, N101Q
notes: Mutation 1 as framework
[2]
  Kd: 0.302 nM

B30: Mutation 1-45 (antibody, mouse IgG2b, kappa, V domains shown)
VH: B1 VH with E31D, V51L, P59A, Q61N, E102D
VL: B1 VL with L29I, N33Q, I38L, I56L, I59L, A96G, S99Y, N101Q
notes: Mutation 1 as framework
[2]
  Kd: 0.384 nM

B31: Mutation 1-46 (antibody, mouse IgG2b, kappa, V domains shown)
VH: B1 VH with E31D, V51I, P59A, Q61N, K98R, E102D
VL: B1 VL with L29I, N33Q, I38L, I56V, I59L, E60D, A96G, S99T, N101Q
notes: Mutation 1 as framework
[2]
  Kd: 0.0721 nM

B32: Mutation 1-47 (antibody, mouse IgG2b, kappa, V domains shown)
VH: B1 VH with Y27S, E31D, P59A, Q61N, E102D
VL: B1 VL with L29I, N33Q, I38L, I56V, I59L, N101Q
notes: Mutation 1 as framework
[2]
  Kd: 0.0828 nM

B33: Mutation 1-48 (antibody, mouse IgG2b, kappa, V domains shown)
VH: B1 VH with E31D, V51L, N55Q, P59A, Q61N, K98R, E102D
VL: B1 VL with N33Q, I38L, I59L, E60D, A96G, S99Y, N101Q
notes: Mutation 1 as framework
[2]
  Kd: 0.333 nM

B34: Mutation 1-49 (antibody, mouse IgG2b, kappa, V domains shown)
VH: B1 VH with I29L, E31D, V51I, N55Q, P59A, Q61N, E102D
VL: B1 VL with N33Q, I38L, I59L, S99T, N101Q
notes: Mutation 1 as framework
[2]
  Kd: 0.0956 nM

B35: Mutation 1-50 (antibody, mouse IgG2b, kappa, V domains shown)
VH: B1 VH with E31D, N55Q, P59A, K98R, E102D
VL: B1 VL with I38L, I56L, I59L, S99Y, N101Q
notes: Mutation 1 as framework
[2]
  Kd: 0.382 nM
